Literature values as cited in paper PMC2656815.

Target: CRF1 receptor N-domain (Homo sapiens) (UniProt P34998)
Chain of UniProt P34998 (P34998 24-119): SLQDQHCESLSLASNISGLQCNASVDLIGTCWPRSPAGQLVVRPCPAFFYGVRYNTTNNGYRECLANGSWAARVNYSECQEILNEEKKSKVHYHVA

CRF (from UniProt P06850)
Kd: 50 nM
